Assay results as given in patent publication US20250297004A1, “NECTIN-4 BINDING AGENTS” (INNATE PHARMA, priority 2022, published 2025).

T1: human Nectin-4 expressed on cells (human, UniProt Q96NY8 32-510)
T1 sequence: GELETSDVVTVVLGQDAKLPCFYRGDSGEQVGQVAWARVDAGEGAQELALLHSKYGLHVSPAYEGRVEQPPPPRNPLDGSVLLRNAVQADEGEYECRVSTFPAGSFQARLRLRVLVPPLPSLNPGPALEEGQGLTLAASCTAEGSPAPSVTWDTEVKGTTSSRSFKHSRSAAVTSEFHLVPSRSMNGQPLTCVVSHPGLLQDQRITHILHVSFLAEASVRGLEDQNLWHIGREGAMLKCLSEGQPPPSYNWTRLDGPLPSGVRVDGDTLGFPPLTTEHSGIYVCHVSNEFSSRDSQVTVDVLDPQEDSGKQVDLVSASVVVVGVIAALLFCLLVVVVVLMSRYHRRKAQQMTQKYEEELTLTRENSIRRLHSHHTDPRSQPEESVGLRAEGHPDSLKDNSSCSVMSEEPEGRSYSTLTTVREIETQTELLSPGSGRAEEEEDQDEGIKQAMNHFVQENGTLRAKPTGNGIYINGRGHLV

T2: human Nectin-4 (Homo sapiens, UniProt Q96NY8)
T2 sequence (Q96NY8 32-510): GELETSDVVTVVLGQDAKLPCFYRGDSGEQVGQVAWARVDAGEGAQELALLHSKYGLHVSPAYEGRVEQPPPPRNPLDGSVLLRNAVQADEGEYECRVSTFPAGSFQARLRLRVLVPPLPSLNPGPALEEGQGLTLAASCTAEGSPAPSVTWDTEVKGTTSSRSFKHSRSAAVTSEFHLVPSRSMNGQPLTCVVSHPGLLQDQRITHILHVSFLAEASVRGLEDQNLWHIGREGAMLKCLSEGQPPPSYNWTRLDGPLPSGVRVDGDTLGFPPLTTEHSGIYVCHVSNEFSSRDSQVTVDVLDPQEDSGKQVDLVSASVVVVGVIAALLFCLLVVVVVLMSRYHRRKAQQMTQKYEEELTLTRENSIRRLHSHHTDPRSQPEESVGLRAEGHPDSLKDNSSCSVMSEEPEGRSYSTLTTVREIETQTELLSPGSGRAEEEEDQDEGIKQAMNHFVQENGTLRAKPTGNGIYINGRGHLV


What was measured:
[1] = target: T1, human Nectin-4 expressed on cells; experiment: cell-based or functional assay
[2] = target: human Nectin-4 (protein used in the SPR affinity measurements) (human) (UniProt Q96NY8); experiment: SPR, human IgG1
human Nectin-4 = target: T2, human Nectin-4; experiment: Binding to human Nectin-4 by SPR; conditions: for ka: SPR association constant; for kd: SPR dissociation constant; for Kd: SPR, human IgG1 isotype antibodies
Description: (§1) The antibodies in Table 3 of Example 3 were cloned as human IgG1 isotype antibodies, produced and purified, then tested for binding to human Nectin-4. Affinity of the 16 humanized variants, as well as their association and dissociation constants were assessed by SPR analysis. Table 4 summarizes all the calculated constants (Affinity constant KD (nM), association constant ka (1/Ms) and dissociation constant kd (1/s)).
as §1, with “Table 6” for “Table 3”, “Example 5” for “Example 3”, “Table 7” for “Table 4”

[3] = target: T1, human Nectin-4 expressed on cells; experiment: cell-based or functional assay; remark: listed apart in the source
[4] = target: T1, human Nectin-4 expressed on cells; experiment: flow cytometry on SUM190 cells, MedFI at saturation
Description: The humanized antibodies in Table 3 of Example 3 and in Table 6 of Example 5 were cloned, produced and purified, then tested for binding to Nectin-4 expressing cells by flow cytometry. Binding of humanized variants in human IgG1 format was determined on the SUM190 cell line expressing high levels of Nectin-4.

Molecule | internalization efficiency on SUM190, normalized to chimeric parental antibody (Fab-ZAP, CTG), experiment 1 [1] | internalization efficiency on SUM190, normalized to chimeric parental antibody (Fab-ZAP, CTG), experiment 2 [1] | Kd [2] | koff [2] | kon [2] | ka (human Nectin-4; second set (Table 7)) | kd (human Nectin-4; second set (Table 7)) | Kd (human Nectin-4; second set (Table 7)) | internalization efficiency on MDA-MB-468, normalized to chimeric parental antibody (Fab-ZAP, CTG), first column [3] | internalization efficiency on MDA-MB-468, normalized to chimeric parental antibody (Fab-ZAP, CTG), second column [3] | Max MedFi [4] | ka (human Nectin-4; first set (Table 4)) | kd (human Nectin-4; first set (Table 4)) | Kd (human Nectin-4; first set (Table 4))
H4L1 (antibody, human IgG1, V domains shown, human IgG1 isotype) VH: QVQLVQSGAEVKKPGASVKVSCKASGYIFTSYWMHWVKQAPGQGLEWMGEIDPSDSYTNYNQKFKGRVTMTLDKSTSTTYMELSSLRSEDTAVYYCARGYGNYGDYWGQGTLVTVSS VL: DVVMTQSPLSLPVTPGEPASISCRSSKSLLHSNGITYLYWYLQKPGQSPQLLIYQMSNLASGVPDRFSSSGSGTDFTLKISRVEAEDVGVYYCAQNLELPWTFGGGTKVEIK | 73.5 % of chimeric parental | 72.6 % of chimeric parental | 0.0195 µM | 0.0059 s⁻¹ | 310000 M⁻¹ s⁻¹ | 310000 ± 30000 M⁻¹ s⁻¹ | 0.0059 ± 0.0003 s⁻¹ | 0.0195 ± 0.0008 µM | 31 % of chimeric parental | 31 % of chimeric parental | 18400 MedFI |  |  | 
H0L0 (antibody, human IgG1, V domains shown, human IgG1 isotype; also called HOLO; humanized 5E7 variant H0L0) VH: QVQLVQSGAEVKKPGASVKVSCKASGYTFTSYWMHWVRQAPGQGLEWMGEIDPSDSYTNYNQKFKGRVTMTRDTSTSTVYMELSSLRSEDTAVYYCARGYGNYGDYWGQGTLVTVSS VL: DIVMTQSPLSLPVTPGEPASISCRSSKSLLHSNGITYLYWYLQKPGQSPQLLIYQMSNLASGVPDRFSGSGSGTDFTLKISRVEAEDVGVYYCAQNLELPWTFGGGTKVEIK | 65.9 % of chimeric parental | 35.4 % of chimeric parental | 0.0802 µM | 0.014 s⁻¹ | 170000 M⁻¹ s⁻¹ | 170000 M⁻¹ s⁻¹ | 0.014 s⁻¹ | 0.0802 µM | -36.2 % of chimeric parental | -36.2 % of chimeric parental | 15500 MedFI | 170000 M⁻¹ s⁻¹ | 0.014 s⁻¹ | 0.0802 µM
H1L0 (antibody, human IgG1, V domains shown, human IgG1 isotype) VH: QVQLVQSGAEVKKPGASVKVSCKASGYTFTSYWMHWVRQAPGQGLEWMGEIDPSDSYTNYNQKFKGRVTMTLDTSTSTTYMELSSLRSEDTAVYYCARGYGNYGDYWGQGTLVTVSS VL: DIVMTQSPLSLPVTPGEPASISCRSSKSLLHSNGITYLYWYLQKPGQSPQLLIYQMSNLASGVPDRFSGSGSGTDFTLKISRVEAEDVGVYYCAQNLELPWTFGGGTKVEIK | 83.7 % of chimeric parental | 58.6 % of chimeric parental | 0.0673 µM | 0.0072 s⁻¹ | 110000 M⁻¹ s⁻¹ |  |  |  | -7.4 % of chimeric parental | -7.4 % of chimeric parental | 17300 MedFI | 110000 M⁻¹ s⁻¹ | 0.0072 s⁻¹ | 0.0673 µM
H2L0 (antibody, human IgG1, V domains shown, human IgG1 isotype) VH: QVQLVQSGAEVKKPGASVKVSCKASGYTFTSYWMHWVRQAPGQGLEWMGEIDPSDSYTNYNQKFKGRVTMTLDKSTSTTYMELSSLRSEDTAVYYCARGYGNYGDYWGQGTLVTVSS VL: DIVMTQSPLSLPVTPGEPASISCRSSKSLLHSNGITYLYWYLQKPGQSPQLLIYQMSNLASGVPDRFSGSGSGTDFTLKISRVEAEDVGVYYCAQNLELPWTFGGGTKVEIK | 74.2 % of chimeric parental | 61.8 % of chimeric parental | 0.0464 µM | 0.0062 s⁻¹ | 130000 M⁻¹ s⁻¹ |  |  |  | -35.5 % of chimeric parental | -35.5 % of chimeric parental | 16700 MedFI | 130000 M⁻¹ s⁻¹ | 0.0062 s⁻¹ | 0.0464 µM
H3L0 (antibody, human IgG1, V domains shown, human IgG1 isotype) VH: QVQLVQSGAEVKKPGASVKVSCKASGYIFTSYWMHWVRQAPGQGLEWMGEIDPSDSYTNYNQKFKGRVTMTLDKSTSTTYMELSSLRSEDTAVYYCARGYGNYGDYWGQGTLVTVSS VL: DIVMTQSPLSLPVTPGEPASISCRSSKSLLHSNGITYLYWYLQKPGQSPQLLIYQMSNLASGVPDRFSGSGSGTDFTLKISRVEAEDVGVYYCAQNLELPWTFGGGTKVEIK | 81.4 % of chimeric parental | 69.7 % of chimeric parental | 0.0358 µM | 0.0041 s⁻¹ | 110000 M⁻¹ s⁻¹ |  |  |  | 1.2 % of chimeric parental | 1.2 % of chimeric parental | 17600 MedFI | 110000 M⁻¹ s⁻¹ | 0.0041 s⁻¹ | 0.0358 µM
H3L1 (antibody, human IgG1, V domains shown, human IgG1 isotype) VH: QVQLVQSGAEVKKPGASVKVSCKASGYIFTSYWMHWVRQAPGQGLEWMGEIDPSDSYTNYNQKFKGRVTMTLDKSTSTTYMELSSLRSEDTAVYYCARGYGNYGDYWGQGTLVTVSS VL: DVVMTQSPLSLPVTPGEPASISCRSSKSLLHSNGITYLYWYLQKPGQSPQLLIYQMSNLASGVPDRFSSSGSGTDFTLKISRVEAEDVGVYYCAQNLELPWTFGGGTKVEIK | 82.1 % of chimeric parental | 41 % of chimeric parental | 0.022 µM | 0.0087 s⁻¹ | 400000 M⁻¹ s⁻¹ |  |  |  | 48.2 % of chimeric parental | 48.2 % of chimeric parental | 17200 MedFI | 400000 ± 30000 M⁻¹ s⁻¹ | 0.0087 ± 0.0004 s⁻¹ | 0.022 ± 0.0004 µM
H3L2 (antibody, human IgG1, V domains shown, human IgG1 isotype) VH: QVQLVQSGAEVKKPGASVKVSCKASGYIFTSYWMHWVRQAPGQGLEWMGEIDPSDSYTNYNQKFKGRVTMTLDKSTSTTYMELSSLRSEDTAVYYCARGYGNYGDYWGQGTLVTVSS VL: DVVMTQSPLSNPVTPGEPASISCRSSKSLLHSNGITYLYWYLQKPGQSPQLLIYQMSNLASGVPDRFSSSGSGTDFTLKISRVEAEDVGVYYCAQNLELPWTFGGGTKVEIK | 69.8 % of chimeric parental | 45.5 % of chimeric parental | 0.0259 µM | 0.0081 s⁻¹ | 310000 M⁻¹ s⁻¹ |  |  |  | 13.7 % of chimeric parental | 13.7 % of chimeric parental | 22900 MedFI | 310000 M⁻¹ s⁻¹ | 0.0081 s⁻¹ | 0.0259 µM
H3L3 (antibody, human IgG1, V domains shown, human IgG1 isotype) VH: QVQLVQSGAEVKKPGASVKVSCKASGYIFTSYWMHWVRQAPGQGLEWMGEIDPSDSYTNYNQKFKGRVTMTLDKSTSTTYMELSSLRSEDTAVYYCARGYGNYGDYWGQGTLVTVSS VL: DVVMTQSALSNPVTPGEPASISCRSSKSLLHSNGITYLYWYLQKPGQSPQLLIYQMSNLASGVPDRFSSSGSGTDFTLKISRVEAEDVGVYYCAQNLELPWTFGGGTKVEIK | 65.3 % of chimeric parental | 59.6 % of chimeric parental | 0.027 µM | 0.007 s⁻¹ | 260000 M⁻¹ s⁻¹ |  |  |  | 43.8 % of chimeric parental | 43.8 % of chimeric parental | 23800 MedFI | 260000 M⁻¹ s⁻¹ | 0.007 s⁻¹ | 0.027 µM
H5L3 (antibody, human IgG1, kappa, V domains shown, Tested as human IgG1) VH: QVQLVQSGAEVKKPGASVKVSCKASGYIFTSYWMHWVKQRPGQGLEWMGEIDPSDSYTNYNQKFKGRVTMTLDKSTSTTYMELSSLRSEDTAVYYCARGYGNYGDYWGQGTLVTVSS VL: DVVMTQSALSNPVTPGEPASISCRSSKSLLHSNGITYLYWYLQKPGQSPQLLIYQMSNLASGVPDRFSSSGSGTDFTLKISRVEAEDVGVYYCAQNLELPWTFGGGTKVEIKR | 82.8 % of chimeric parental | 74.9 % of chimeric parental | 0.0215 µM | 0.0053 s⁻¹ | 250000 M⁻¹ s⁻¹ |  |  |  | 87.8 % of chimeric parental | 87.8 % of chimeric parental | 27100 MedFI |  |  | 
